Source: US20070037177A1, “CYP19A1 polymorphisms” (priority 2005, published 2007)

Tests used:
[1] = tested on: Recombinant Human CYP19A1 Allozymes; test: CYP19A1 enzyme activity of recombinant allozymes (3H2O release from [1β3H]androst-4-ene-3,17-dione, COS-1 microsomes); type: biochemical; conditions: 20 nM androstenedione substrate, corrected for transfection efficiency, 6 independent transfections
[2] = tested on: Recombinant Human CYP19A1 Allozymes; test: Substrate kinetics: apparent Km of recombinant CYP19A1 allozymes with androstenedione; type: biochemical; conditions: androstenedione as substrate; COS-1 microsomes

| % WT activity [1] [%] | Molecule | Apparent Km [2] |
| --- | --- | --- |
| 72 | Cys264: "a CYP19A1 polypeptide (Arg264Cys) having a cysteine at amino acid residue 264" (protein, UniProt P11511 1-503, looked up, variant R264C) Aromatase: MVLEMLNPIHYNITSIVPEAMPAATMPVLLLTGLFLLVWNYEGTSSIPGPGYCMGIGPLISHGRFLWMGIGSACNYYNRVYGEFMRVWISGEETLIISKSSSMFHIMKHNHYSSRFGSKLGLQCIGMHEKGIIFNNNPELWKTTRPFFMKALSGPGLVRMVTVCAESLKTHLDRLEEVTNESGYVDVLTLLRRVMLDTSNTLFLRIPLDESAIVVKIQGYFDAWQALLIKPDIFFKISWLYKKYEKSVKDLKDAIEVLIAEKRCRISTEEKLEECMDFATELILAEKRGDLTRENVNQCILEMLIAAPDTMSVSLFFMLFLIAKHPNVEEAIIKEIQTVIGERDIKIDDIQKLKVMENFIYESMRYQPVVDLVMRKALEDDVIDGYPVKKGTNIILNIGRMHRLEFFPKPNEFTLENFAKNVPYRYFQPFGFGPRGCAGKYIAMVMMKAILVTLLRRFHVKTLQGQCVESIQKIHDLSLHPDETKNMLEMIFTPRNSDRCLEH |  |
|  | Thr364: "a CYP19A1 polypeptide having a threonine at amino acid residue 364. This polypeptide (Met(364)Thr) would be considered an allozyme" (protein, UniProt P11511 1-503, looked up, variant M364T) Aromatase: MVLEMLNPIHYNITSIVPEAMPAATMPVLLLTGLFLLVWNYEGTSSIPGPGYCMGIGPLISHGRFLWMGIGSACNYYNRVYGEFMRVWISGEETLIISKSSSMFHIMKHNHYSSRFGSKLGLQCIGMHEKGIIFNNNPELWKTTRPFFMKALSGPGLVRMVTVCAESLKTHLDRLEEVTNESGYVDVLTLLRRVMLDTSNTLFLRIPLDESAIVVKIQGYFDAWQALLIKPDIFFKISWLYKKYEKSVKDLKDAIEVLIAEKRRRISTEEKLEECMDFATELILAEKRGDLTRENVNQCILEMLIAAPDTMSVSLFFMLFLIAKHPNVEEAIIKEIQTVIGERDIKIDDIQKLKVMENFIYESTRYQPVVDLVMRKALEDDVIDGYPVKKGTNIILNIGRMHRLEFFPKPNEFTLENFAKNVPYRYFQPFGFGPRGCAGKYIAMVMMKAILVTLLRRFHVKTLQGQCVESIQKIHDLSLHPDETKNMLEMIFTPRNSDRCLEH | elevated |
